Experimental data taken from patent US20220002743.
Numbering of substitutions follows the chain as printed. Numbers in names are those of the source.

B1: wild type protein kinase Nitab4.5_0003679 g0060.2 (SEQ ID No. 3) (protein)
chain: MAIEDNESCGSRVVDSATTSGRHQRKKLEVYNEVLRRLKESNNVEALEPGFDDELWAHFNRLPTRYAIDVNVERAEDVLTHKRLLHLAHVPANRPAFDVRLVQVASVPDGNLRDSFHSSFAKKEVSRSVHPPPAFGSSPNLEALACEAIKSEVQDEDTAAPCANFSRPMHEITFSTDDKPKLLSQLTSLLAELGLNIQEAHAFSTVDGYSLDVFVVDGWPYEEVVRLRTALEREILRNEKSWPSPSQSFIKQEQDLIKREFDHLTIPFDGIDVWEIDHQLLKFEYKIASGSYGDLYKGTYCSQDVAIKILKSERLNTELQTEFAQEVYIMRKVRHKNVVQFIGACTRPPNLCIVTEYMSGGSVYDYLHKRKGSFKLPTLLKVAIDVAKGMNYLHQNNIIHRDLKAANLLMDENEVIKVADFGVARVKAQTGVMTAETGTYRWMAPEVIEHKPYDHKADVFSFGVVLWELLTGKLPYEYLTPLQAAIGVVQKGLRPTIPKHTPPRLAELLETCWQQDPTSRPDFSEIVDILQQIAKEVGDERADRCKEKSAGGFFSALRRGHH
B2: K308M variant of protein kinase Nitab4.5_0003679 g0060.2 (SEQ ID No. 3) (protein)
chain: B1 chain with K308M

Target: myelin basic protein
Sequence (P02687 whole entry): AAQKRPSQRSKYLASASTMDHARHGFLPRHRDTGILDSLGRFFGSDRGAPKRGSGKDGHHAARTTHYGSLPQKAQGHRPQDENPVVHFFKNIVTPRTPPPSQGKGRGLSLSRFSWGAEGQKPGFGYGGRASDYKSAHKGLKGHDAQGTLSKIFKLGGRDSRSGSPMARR

Row | Protein | in vitro kinase reaction; phosphorylation detected by Pro-Q Diamond phosphoprotein gel stain after SDS-PAGE
1 | B1 | K308 (i.e. the wild type SEQ ID No. 3) is an active protein kinase
2 | B2 | the variant K308M is not an active kinase
